The experiment concerns the target monoclonal antibody against the N-terminal FERM domain of moesin. Put plainly: cell-based or functional assay.

As for “N-terminal FERM domain of human moesin protein (from UniProt P26038 1-297)”, the CD62P FD (Mnx), platelet activation induced by anti-moesin N-terminal domain antibody, inhibitor N-terminal FERM domain is 5.79 FD (Mnx); the CD63 FD (Mnx), platelet activation induced by anti-moesin N-terminal domain antibody, inhibitor N-terminal FERM domain is 6.3 FD (Mnx); the PAIR, platelet aggregation induced by anti-moesin N-terminal domain antibody (2 µg/mL), inhibitor N-terminal domain (0.2 mM) came out at 90.2%; the PAR (%), platelet aggregation induced by anti-moesin N-terminal domain antibody (2 µg/mL), inhibitor N-terminal domain (0.2 mM) came out at 6.03%.
